Values joined by “and” are separate entries in the source; they are usually repeats but may differ in a detail not shown here. Identical values can stand only once.
What was measured:
Type in all cases: in vivo, dog
A. caninum [1] = experiment: Canine vaccine trial HV-12, percutaneous challenge with 500 A. caninum L3; conditions: for Adult Hookworm Worm Counts, Intestine, Male, Average / Adult Hookworm Worm Counts, Intestine, Female, Average / Adult Hookworm Worm Counts, Total, Average: group average; for Adult Hookworm Worm Counts, Intestine, Male, Average: AS03 control 64; for Adult Hookworm Worm Counts, Intestine, Female, Average: AS03 control 71; for Adult Hookworm Worm Counts, Total, Average: AS03 control 137
Protocol: (§1) Brief Outline of Study Sections: Purpose bred beagles were randomized into five groups. […] groups were given one of three candidate vaccines: Ac-Cystatin, Ac-MTP-2 and Ac-GST in combination with the adjuvant ASO3. One group will serve as the negative control receiving the adjuvant only. Another group will be a positive control immunized with irradiated infective larvae. Each animal's specific antibody response was evaluated by direct ELISA using serum taken prior to the infective challenge. Cellular immune responses were assessed by peripheral (blood cells) lymphoproliferative responses to specific recombinant antigens and/or crude extract of infective larvae (L3) or adult worms. Local cellular immune responses were performed post mortem with lymphocytes extracted from mesenteric lymph nodes and, if considered, spleen. After immunization, animals were challenged with a known number dose of infective third stage larvae of A. caninum. Quantitative ova counts, used to evaluate worm burden, were determined from fecal samples collected three times per week. […] Tissues from different organs were examined macro and microscopically to assess any consequence of the vaccine, parasite or immune related lesions.
(§2) Administration of Test and Control Articles: The vaccines and adjuvant were administered intramuscularly (IM) […] beginning when the dogs are 62+/−4 days old. The vaccines are boosted at 21+/−3-day intervals. Four doses of the vaccines were given 21 days apart (days 0, 21, 42, and […]). The dogs were challenged percutaneously with 500 A. caninum L3, 14 days after the final vaccination.
Challenge Infection: Ancylostoma caninum larvae were cultured from the eggs collected in the feces of infected dogs. All hookworms in the infective challenge were approximately equal age (17±7 days). The species identity of the infective larva dose were validated using PCR DNA amplification and specific oligonucleotide primers. Overnight-collected feces of A. caninum-infected dogs were cultured, extracted and counted. All dogs were infected by the footpad method with the same dose (500+/−5%, of 3rd stage larvae of A. caninum. Larval challenge occurs on one of three consecutive days (at age 120+/−9 days) in 5 series. To minimize the difference in the infective L3 doses, each series included one dog from each (A-E group). […]
Adult Worm Count. Adult worms retained in the small and large intestines were collected. The small and large bowel will be collected and the small intestine will be suspended (the large bowel will not be suspended) in a container and incubated for at least two hours at 35° C. saline to collect the adult parasites. The adult worms were separated from the intestinal contents, counted, and preserved in formalin for subsequent count and analysis of sex, length and weight. Results and Analysis

[2] = tested on: antigen-specific IgG1 and IgG2; experiment: Antibody titers in HV-12 (Ac-CYS, Ac-MTP-2, Ac-GST in AS03, irradiated L3); conditions: for Antibody titers, IgG1, GEOMEAN / Antibody titers, IgG2, GEOMEAN: geometric mean of group; for Antibody titers, IgG1 / Antibody titers, IgG2: individual dogs, after four immunizations, L3 Extract = group E dogs vaccinated with irradiated L3
Protocol: as §1, §2
Serum Samples for Quantitative ELISA Antibody Titers: Animals treated with vaccines containing foreign proteins develop an immune response resulting in an increased level of high affinity serum antibodies that are directed against the antigen. […] White blood cells were collected for immunological measurements nine (9) days after the last boost and at the time of euthanasia to address the cellular immune response status and cytokine production upon in vitro restimulation of lymphocytes.

A. caninum [3] = experiment: Canine vaccine trial with Ac-MTP-1, subcutaneous challenge with 500 A. caninum L3
Source text: To test whether Ac-MTP-1 could be an effective vaccine, two groups of five (5) purpose-bred male beagles 8+1 wk of age were vaccinated either with the recombinant (expressed and isolated from Escherichia coli) fusion protein formulated with AS02A adjuvant, or adjuvant alone. The composition of AS02A, which has been successfully used in several malaria vaccine clinical studies, is described elsewhere (Lalvani et al, 1999; Bojang et al, 2001; Kester et al, 2001). Details of the animal husbandry and housing conditions were reported previously (Hotez et al, 2002a). The recombinant fusion protein containing a polyhistidine tag was purified from washed E. coli inclusion bodies that were solubilized in 6 M guanidine-HCl in 10 mM Tris HCl, pH 8.0. The solubilized inclusion bodies were processed in 5-10 ml batches by gel filtration chromatography (Sephacryl S-300, 26/60 gel filtration column [Amersham Pharmacia] pre-equilibrated in a buffer containing 0.1 NaH2PO4, 10 mM Tris-HCl and 6 M guanidine) at room temperature (flow rate of 2 ml/minute). Selected fractions containing Ac-MTP-1 (as determined by analysis on sodium dodecyl sulfate-polyacrylamide gel electrophoresis [SDS-PAGE]) were pooled, refolded according to the method of Singh et al (2001), and then loaded onto a 5 ml Hi-Trap IMAC column (Amersham Pharmacia) charged with ZnCl2 and equilibrated in 50 mM sodium phosphate pH 7.2, 1 M urea, and 0.5 M NaCl. The column was subsequently washed with 15 column volumes of equilibration buffer, and the bound protein was eluted with 50 mM sodium phosphate pH7.2, 1 M urea, 0.5 M NaCl, and 50 mM ethylenediamine tetraacetic acid (EDTA). Eluted samples containing protein were pooled and dialyzed against 10 mM Tris-HCl pH 8.0, 5% glycerol, 1 mM dithiothreitol, and 2 mM EDTA.
The recombinant Ac-MTP-1 fusion protein was mixed with SBAS2 adjuvant and administered to each of five dogs in four intramuscular injections on days 1, 4, 43, and 50. […] Antigen-specific canine IgG2 and IgE antibodies were measured by indirect enzyme-linked immunosorbent assay (ELISA) as described previously (Hotez et al, 2002a). […] Quantitative hookworm egg counts (McMaster technique) on each dog were obtained 3 days per wk beginning on day 12 post-infection (PI). Five wk post-infection, the dogs were killed by intravenous barbituate injection, and the adult hookworms were recovered and counted from the small and large intestines at necropsy (Hotez et al., 2002c). The statistical significance of differences between adult hookworm burdens was determined using the Anova test, as were differences in hematological parameters and in quantitative hookworm egg counts. Comparisons of hookworm burden and egg counts with antibody titers were measured using Spearman rank order (nonparametric) correlations. […]

A. caninum [4] = experiment: Canine vaccine trial with Ac-TTR and SBAS2, L3 challenge: worm burden, blood loss, worm size
Protocol: E. coli derived antigens Ac-MTP-1 and Ac-TTR were tested in vaccine trials in dogs. Antigens were administered with adjuvant SBAS2. […] Subsequently the dogs were challenged by subcutaneous injection of L3 hookworm larvae.
Animals were also tested to ascertain whether vaccination with hookworm antigens protected against blood loss. […] Using the Mann-Whitney test, the differences in both hemoglobin (38B) concentration (P=0.036) and hematocrit (38A) concentration (P=0.009) between the TTR and adjuvant control groups were statistically significant.
Further, the differences in hemoglobin concentration translated to a statistically significant reduction in worm size. Data was collected using an imaging system based on scans of the worms recovered from a host. Worms were photographed with a CoolSnapPro digital camera (Media Cybernetics), and the images measured in ImagePro Software using a macro to determine worm length (in mm) compared between treatments. As shown in FIG. 39 there was a statistically significant reduction in worm size (between 1 and 2 mm) among the TTR vaccinated group relative to the adjuvant control group.

B1: Ac-CYS: A. caninum cystatin antigen, SEQ ID NO: 100; Pichia pastoris expressed (protein, listed as Ancylostoma caninum)
chain: MPYLAFIVALLACTVMSGHGQMTGGLTKQDPNDPEHMARAWKAAKGINEDASNAGPYHMIPIKIVKAESQVVAGVRYIFEVLFGESTCKKGHMAATELSASNCELKEGGNRALYKVELWEKPWENFEQFNVEKIRNVAAGEQI
A. caninum [1]
  Adult Hookworm Worm Counts, Intestine, Male, Average: 49
  Adult Hookworm Worm Counts, Intestine, Female, Average: 56
  Adult Hookworm Worm Counts, Total, Average: 107
A. caninum [1]; individual dogs
  Adult Hookworm Worm Counts, Colon, Female: 0 (3×) and 5 and 2
  Adult Hookworm Worm Counts, Colon, Male: 0 (3×) and 1 and 3
  Adult Hookworm Worm Counts, Intestine, Female: 56 and 85 and 29 and 67 and 41
  Adult Hookworm Worm Counts, Intestine, Male: 44 and 81 and 38 and 48 and 36
  Adult Hookworm Worm Counts, Intestine, Unk. Sex: 1
  Adult Hookworm Worm Counts, Total: 100 and 167 and 67 and 124 and 79
[2]
  Antibody titers, IgG1, GEOMEAN: 121,500
  Antibody titers, IgG2, GEOMEAN: 364,500
  Antibody titers, IgG1: 121,500 (3×) and 40,500 and 364,500
  Antibody titers, IgG2: 364,500 (3×) and 121,500 and 1,093,500

B2: Ac-MTP-1: A. caninum L3 astacin zinc metalloprotease, SEQ ID NO: 16 (also listed as SEQ ID NO: 40); E. coli fusion protein (protein, listed as Ancylostoma caninum)
chain: MRVLLLLLLLSICASAGFLDTKFGQKIKKTLDKIKAVLNGTALIAIREKFIRLREKIKAKLTLSPARKAILDEVMKHIKMIKKDKIQEKGDSIDEINEKSAIGQLLYQGDIVLTEKQAQQITEDIENDKGDREKRQAFRDRNYPRTLWSKGVYFHFHRNATPEVRSVFVKGAKLWMKDTCIDFFESNSAPDRIRVFKENGCWSYVGRLGGEQDLSLGEGCQSVGTAAHEIGHAIGFYHTHARHDRDNFITFNAQNVKPDWLDQFTLQTPATNENYGITYDYGSIMHYGANSASQNGRPTMVPHDPKYVETLGINKHYDCTKNCDPATSAQCKMGGFPHPRDCTRCICPSGYGGKLCDQKPAGCGSIYQATNQYQTLHDEIGDKRAGQRPREDMDFCYYWITAPKGSKIEIKIAGLSQGAAVEGCQYWGVEIKTHADQRLTGYRFCAPEDVGVRLVSNFNIVPIITYNIFYATYVDIQYRIVGDNVGGPMPQPQPNSNCVDNEQCATLVRTKNFCQSRFFTSSVKRGLCPKSSGFCR
A. caninum [3]; dog, in vivo
  reduction in worm burden, dog with highest versus dog with lowest antibody titer: 50%
A. caninum [3]; single vaccinated dog
  hookworms recovered from the dog with the highest antibody titer: 98 hookworms
  hookworms recovered from the dog with the lowest antibody titer: 189 hookworms
A. caninum [3]; vaccinated dogs, 5 wk after 500 L3 s.c., control dogs 143+30, not significant
  number of adult hookworms recovered (mean+standard deviation): 154+34 hookworms

B3: Ac-TTR-1: A. caninum transthyretin antigen, SEQ ID NO: 30; E. coli derived, given with SBAS2 (protein, listed as Ancylostoma caninum)
chain: MIQLFLLALVPMCISVREQSIAVKGRLLCGDQPAANVRVKLWEEDTGPDPDDLLDAGYTNSNGEFQLQGGTIETTPIDPVLKIYHDCNDVTGFLSVPKPGSRKVRFSLPDKYISDGMVPKKVMDIGVINLEVEFEKEGREFIVD
A. caninum [4]; one dog with high IgE and IgG1 antibody to TTR
  reduced hookworm burden: 6%
A. caninum [4]; versus adjuvant control, hemoglobin P=0.036, hematocrit P=0.009
  protection against blood loss (hemoglobin, hematocrit): significant protection against blood loss

B4: Ac-MTP-2: A. caninum astacin protease antigen, SEQ ID NO: 42; Pichia pastoris expressed (protein, listed as Ancylostoma caninum)
chain: MKYFVLCFCAFFVVNADEEDDLPRNPLWDAYKDDNGKYVIPYVINGSYGEEKKVLFEMMDEIDKNTCVRFIPRSTEQDYIEIVNRLGEGTGAVVGKPGGKSIVLLESSKILNDPTPAPVMQTLMKIIGLPPEHIRPERKDHIKIHWENIEKGYEAFFALSSVKPDPYGIPYDYYSIMHYKKDAFAKPGTITMETLDKRYQDIIGNQEKPSKLDYKKICTKYKCDICMGEKMKY
A. caninum [1]
  Adult Hookworm Worm Counts, Intestine, Male, Average: 61
  Adult Hookworm Worm Counts, Intestine, Female, Average: 60
  Adult Hookworm Worm Counts, Total, Average: 132
A. caninum [1]; individual dogs
  Adult Hookworm Worm Counts, Colon, Female: 10 and 3 and 2 and 15 and 0
  Adult Hookworm Worm Counts, Colon, Male: 11 and 2 and 1 (2×) and 9
  Adult Hookworm Worm Counts, Intestine, Female: 71 and 51 and 41 and 65 and 73
  Adult Hookworm Worm Counts, Intestine, Male: 64 (2×) and 49 and 41 and 87
  Adult Hookworm Worm Counts, Total: 156 and 105 and 85 and 153 and 161
[2]
  Antibody titers, IgG1, GEOMEAN: 62,850
  Antibody titers, IgG2, GEOMEAN: 121,500
  Antibody titers, IgG1: 121,500 (2×) and 40,500 (3×)
  Antibody titers, IgG2: 364,500 and 121,500 (3×) and 40,500

From patent US7303752B2, “Hookworm vaccine” (The George Washington University, priority 2001, dated 2007)
